{"source": "patent US20140087436", "test_in_all_cases": "cell_activity", "key": {"[1]": {"biological_target": "T1, CbbR D144N (Ralstonia eutropha) (UniProt P42722)", "T1 sequence": "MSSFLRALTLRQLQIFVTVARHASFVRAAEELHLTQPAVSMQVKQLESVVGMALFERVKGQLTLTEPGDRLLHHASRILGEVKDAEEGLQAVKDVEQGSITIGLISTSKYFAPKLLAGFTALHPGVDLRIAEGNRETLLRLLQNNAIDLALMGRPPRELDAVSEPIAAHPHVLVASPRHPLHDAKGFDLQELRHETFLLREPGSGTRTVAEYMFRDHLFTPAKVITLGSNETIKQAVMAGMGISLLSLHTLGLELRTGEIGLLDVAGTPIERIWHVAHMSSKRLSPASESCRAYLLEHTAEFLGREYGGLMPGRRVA", "conditions": "beta-galactosidase, chemoheterotrophic; chemoautotrophic 6932"}, "[2]": {"biological_target": "T2, CbbR E87K (Ralstonia eutropha) (UniProt P42722)", "T2 sequence": "T1 sequence with E87K, N144D", "conditions": "beta-galactosidase, chemoheterotrophic; chemoautotrophic 5515"}, "[3]": {"biological_target": "T3, CbbR E87K/G242S (Ralstonia eutropha) (UniProt P42722)", "T3 sequence": "T1 sequence with E87K, N144D, G242S", "conditions": "beta-galactosidase, chemoheterotrophic; chemoautotrophic 4820"}, "[4]": {"biological_target": "T4, CbbR A167V (Ralstonia eutropha) (UniProt P42722)", "T4 sequence": "T1 sequence with N144D, A167V", "conditions": "beta-galactosidase, chemoheterotrophic; chemoautotrophic 7373"}, "[5]": {"biological_target": "T5, CbbR G205D/G118D (Ralstonia eutropha) (UniProt P42722)", "T5 sequence": "T1 sequence with G118D, N144D, G205D", "conditions": "beta-galactosidase, chemoheterotrophic; chemoautotrophic 3939"}, "[6]": {"biological_target": "T6, CbbR T232I (Ralstonia eutropha) (UniProt P42722)", "T6 sequence": "T1 sequence with N144D, T232I", "conditions": "beta-galactosidase, chemoheterotrophic; chemoautotrophic 5005"}, "[7]": {"biological_target": "T7, CbbR G125D (Ralstonia eutropha) (UniProt P42722)", "T7 sequence": "T1 sequence with G125D, N144D", "conditions": "beta-galactosidase, chemoheterotrophic; chemoautotrophic 6777"}, "[8]": {"biological_target": "T8, CbbR P269S/T299I (Ralstonia eutropha) (UniProt P42722)", "T8 sequence": "T1 sequence with N144D, P269S, T299I", "conditions": "beta-galactosidase, chemoheterotrophic; chemoautotrophic 3879"}}, "note": "Changes are numbered by the printed parent chain."}
{"substance": "cbb promoter in lacZ reporter strain", "values": [{"measurement": "activity", "setting": "[1]", "value": 809, "unit": "nmol/min/mg"}, {"measurement": "activity", "setting": "[2]", "value": 1600, "unit": "nmol/min/mg"}, {"measurement": "activity", "setting": "[3]", "value": 303, "unit": "nmol/min/mg"}, {"measurement": "activity", "setting": "[4]", "value": 768, "unit": "nmol/min/mg"}, {"measurement": "activity", "setting": "[5]", "value": 1170, "unit": "nmol/min/mg"}, {"measurement": "activity", "setting": "[6]", "value": 303, "unit": "nmol/min/mg"}, {"measurement": "activity", "setting": "[7]", "value": 108, "unit": "nmol/min/mg"}, {"measurement": "activity", "setting": "[8]", "value": 617, "unit": "nmol/min/mg"}]}
